Measured values: PMC5603589 (2017)

Target: GST-AKT1 CA (85 kDa) (UniProt P31749 1-480)
Assay: BLI

Chain of GST-AKT1 CA (85 kDa) (P31749 whole entry): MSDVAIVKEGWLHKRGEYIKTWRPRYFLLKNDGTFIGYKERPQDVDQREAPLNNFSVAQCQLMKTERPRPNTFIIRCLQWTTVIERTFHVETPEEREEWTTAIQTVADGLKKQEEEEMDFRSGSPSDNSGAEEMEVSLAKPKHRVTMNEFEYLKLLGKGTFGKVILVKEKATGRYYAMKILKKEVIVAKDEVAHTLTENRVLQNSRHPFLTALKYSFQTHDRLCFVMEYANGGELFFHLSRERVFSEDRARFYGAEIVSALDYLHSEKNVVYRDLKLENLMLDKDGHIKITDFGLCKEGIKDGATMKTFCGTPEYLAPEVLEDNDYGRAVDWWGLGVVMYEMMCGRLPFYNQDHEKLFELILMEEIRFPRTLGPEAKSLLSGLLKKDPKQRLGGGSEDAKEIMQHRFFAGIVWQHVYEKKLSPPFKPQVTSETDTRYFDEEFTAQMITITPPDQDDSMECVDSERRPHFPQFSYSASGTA

- Kd: 0.0772 nM
B1: GST-PALLD third IgC domain (40 kDa) (domain or fragment)
chain: PFFEMKLKHYKIFEGMPVTFTCRVAGNPKPKIYWFKDGKQISPKSDHYTIQRDLDGTCSLHTTASTLDDDGNYTIMAANPQGRIS
modifications: labelled by biotin
